In this test the target is F-actin (pre-polymerized actin filaments) (UniProt P68135). In words: co-sedimentation.

The results in this text go back to publication doi:10.1101/2025.08.29.673170.

What is called Kd is the constant that tells how readily two partners part at equilibrium. Low readings indicate higher affinity, high ones lower affinity. “10xHis-SNAP-UtrABD (from UniProt P46939 1-261) (domain or fragment)”: the Kd is 0.4 µM and the duty ratio KABD = kon/(kon + koff) is 0.71.
As to 10xHis-SNAP-EzrABD (domain or fragment), the duty ratio KABD = kon/(kon + koff) turned out to be 0.14.
Regarding “10xHis-SNAP-EzrABD K577A (domain or fragment)”, the Kd is 10 µM and the duty ratio KABD = kon/(kon + koff) came out at 0.1.
